Primed or numbered codes have the meaning given here. [ ]: non-standard residue; d: D form. Ygp(3) = O-(PEG8-amino)-tyrosine; Yn3(3) = O-(PEG9-azido)-tyrosine; hSer = N[C@@H](CCO)C(=O)O; Nle = CCCC[C@H](N)C(=O)O
Biological target: T1, IL-2 receptor βγ complex on human T cells (human, UniProt P14784 27-551; P31785 23-369)
T1 sequence (looked up) 1: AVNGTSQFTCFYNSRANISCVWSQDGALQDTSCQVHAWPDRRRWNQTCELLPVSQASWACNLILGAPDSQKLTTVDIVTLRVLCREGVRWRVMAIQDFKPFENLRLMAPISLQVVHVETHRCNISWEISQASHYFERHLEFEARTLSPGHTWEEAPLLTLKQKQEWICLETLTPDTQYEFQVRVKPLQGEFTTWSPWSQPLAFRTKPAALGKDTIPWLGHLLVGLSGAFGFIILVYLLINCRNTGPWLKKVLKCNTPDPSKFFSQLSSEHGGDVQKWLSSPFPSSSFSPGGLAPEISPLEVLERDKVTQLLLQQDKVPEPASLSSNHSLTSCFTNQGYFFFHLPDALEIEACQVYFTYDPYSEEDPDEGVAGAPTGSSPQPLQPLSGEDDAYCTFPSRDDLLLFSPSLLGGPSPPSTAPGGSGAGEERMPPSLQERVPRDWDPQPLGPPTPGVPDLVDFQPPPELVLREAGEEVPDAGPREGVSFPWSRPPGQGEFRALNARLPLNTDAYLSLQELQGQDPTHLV
T1 sequence (looked up) 2: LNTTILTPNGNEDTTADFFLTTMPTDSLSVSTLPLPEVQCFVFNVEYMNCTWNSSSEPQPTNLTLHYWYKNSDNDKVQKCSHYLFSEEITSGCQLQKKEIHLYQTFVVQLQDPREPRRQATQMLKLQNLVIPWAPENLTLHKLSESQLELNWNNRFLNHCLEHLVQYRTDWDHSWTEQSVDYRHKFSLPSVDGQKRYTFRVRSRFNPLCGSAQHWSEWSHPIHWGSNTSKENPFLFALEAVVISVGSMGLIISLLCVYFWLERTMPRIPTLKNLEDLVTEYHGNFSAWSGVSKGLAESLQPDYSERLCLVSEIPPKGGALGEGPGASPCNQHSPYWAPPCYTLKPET
Assay: cell-based or functional assay

Binder	Average EC50, pSTAT5 Assay (T cells), intact molecule	Average EC50, pSTAT5 Assay (T cells), MMP2 cleaved molecule
CMP-150 (ligand, also: further groups not given here) APTSSSTKKTQLQLEHLLLDLK[Nle]ILNGINNYKNPKLTR[Nle]L[hSer][Yn3(3)]KF[Ygp(3)][Nle]PKKATELKHLQCLEEELKPLEEVL[hSer]LAQSKNFHLRPRDLISNINVIVLELKGSETTF[hSer]CEYADETATIVEFLNRWITFSQSIISTLT	6.38 nM	
CMP-147, MMP2 cleaved (ligand, also: MMP2-cleaved form, remnant not given here, Lys13 side chain attached moiety) APTSSSTKKTQLKLEHLLLDLQ[Nle]ILNGINNYKNPKLTR[Nle]L[hSer][Yn3(3)]KF[Ygp(3)][Nle]PKKATELKHLQCLEEELKPLEEVL[hSer]LAQSKNFHLRPRDLISNINVIVLELKGSETTF[hSer]CEYADETATIVEFLNRWITFSQSIISTLT		1.29 nM
CMP-149 (ligand, also: further groups not given here) APTSSSTKKTQLQLEHLLKDLQ[Nle]ILNGINNYKNPKLTR[Nle]L[hSer][Yn3(3)]KF[Ygp(3)][Nle]PKKATELKHLQCLEEELKPLEEVL[hSer]LAQSKNFHLRPRDLISNINVIVLELKGSETTF[hSer]CEYADETATIVEFLNRWITFSQSIISTLT	46.7 nM	
CMP-149, MMP2 cleaved (ligand, also: MMP2-cleaved form, remnant not given here, Lys19 side chain attached moiety) APTSSSTKKTQLQLEHLLKDLQ[Nle]ILNGINNYKNPKLTR[Nle]L[hSer][Yn3(3)]KF[Ygp(3)][Nle]PKKATELKHLQCLEEELKPLEEVL[hSer]LAQSKNFHLRPRDLISNINVIVLELKGSETTF[hSer]CEYADETATIVEFLNRWITFSQSIISTLT		9.56 nM
CMP-147 (ligand, also: further groups not given here) APTSSSTKKTQLKLEHLLLDLQ[Nle]ILNGINNYKNPKLTR[Nle]L[hSer][Yn3(3)]KF[Ygp(3)][Nle]PKKATELKHLQCLEEELKPLEEVL[hSer]LAQSKNFHLRPRDLISNINVIVLELKGSETTF[hSer]CEYADETATIVEFLNRWITFSQSIISTLT	3.86 nM	
CMP-148, MMP2 cleaved (ligand, also: MMP2-cleaved form, remnant not given here, Lys15 side chain attached moiety) APTSSSTKKTQLQLKHLLLDLQ[Nle]ILNGINNYKNPKLTR[Nle]L[hSer][Yn3(3)]KF[Ygp(3)][Nle]PKKATELKHLQCLEEELKPLEEVL[hSer]LAQSKNFHLRPRDLISNINVIVLELKGSETTF[hSer]CEYADETATIVEFLNRWITFSQSIISTLT		0.95 nM

— patent publication US20240376170A1 (BRIGHT PEAK THERAPEUTICS, published 2024)
